In US20240124585A1 (SUTRO BIOPHARMA, published 2024):
Positions count from the first letter of the chain named. In names and notes the source's numbering stands.

T1: cynomolgus CD3 epsilon (cynomolgus monkey, UniProt Q95LI5 22-117, limits assumed)
T1 construct: Recombinant protein; also called cyno CD3E
T1 sequence: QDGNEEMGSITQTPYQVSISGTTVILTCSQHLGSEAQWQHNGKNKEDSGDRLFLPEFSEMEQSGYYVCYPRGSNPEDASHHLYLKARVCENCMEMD

B1: 2037-B10_Hc-S107D (antibody, human IgG1, lambda, V domains shown)
VH: EVQLVESGGGLVKPGGSLRLSCAASGFTFNKYAMNWVRQAPGKGLEWVARIRTKYNNYATYYADSVKDRFTISRDDSKNTAYLQMNSLKTEDTAVYYCVRHGNFGNDYISYWAYWGQGTPVTVSS
VL: QTVVTQEPSLTVSPGGTVTLTCGSSTGAVTSGYYPNWLQQKPGQAPRGLIGGTKFLAPGTPARFSGSLLGGKAALTLSGVQPEDEAEYYCALWYSNRWVFGGGTQLTVTG
notes: human IgG1, lambda; also called SRP 2037 S107D; 2037-B10_VH-S107D
B2: 2037-B10_Hc-Y55D (antibody, human IgG1, lambda, V domains shown)
VH: B1 VH with Y55D, D107S
VL: B1 VL
notes: human IgG1, lambda; also called SRP 2037 Y55D; 2037-B10_VH-Y55D
B3: 2037-B10_Hc-Y61D (antibody, human IgG1, lambda, V domains shown)
VH: B1 VH with Y61D, D107S
VL: B1 VL
notes: human IgG1, lambda; also called SRP 2037 Y61D; 2037-B10_VH-Y61D
B4: SRP2037-B10 (antibody, V domains shown)
VH: not shown
VL: B1 VL
notes: human IgG1, lambda; also called 2037-B10 WT; 2037-B10 wt LC (lambda)
B5: 2037-B10-Lc6 (antibody)
heavy: not shown
light: DIQMTQSPSSLSASVGDRVTITCGSSTGAVTSGYYPNWLQQKPGQAPRGLIGGTKFLAPGVPSRFSGSLSGGKATLTISSLQPEDFATYYCALWYSNRWVFGGGTKVEIKRTVAAPSVFIFPPSDEQLKSGTASVVCLLNNFYPREAKVQWKVDNALQSGNSQESVTEQDSKDSTYSLSSTLTLSKADYEKHKVYACEVTHQGLSSPVTKSFNRGEC
notes: human IgG1, kappa; also called Kappa Lc6; Parent HC + Kappa Lc6
B6: 2037-B10-Lc1 (antibody)
heavy: not shown
light: B5 light with L39Y, Q45K, R48K, G49L, L69G, G72T, K73D, A74F
notes: human IgG1, kappa; also called Kappa Lc1
B7: 2037-B10-Lc3 (antibody)
heavy: not shown
light: B5 light with L69G, G72T, K73D, A74F
notes: human IgG1, kappa; also called Kappa Lc3
B8: 2037-B10-Lc4 (antibody)
heavy: not shown
light: B5 light with L39Y, Q45K, R48K, G49L
notes: human IgG1, kappa; also called Kappa Lc4
B9: 2037-B10-Lc8 (antibody)
heavy: not shown
light: DTQVTQSPSLSASVGDRVTITCGSSTGAVTSGYYPNWLQQKPGQAPRGLIGGTKFLAPGVPSRFSGSLSGGKATLTISSLQPEDFATYYCALWYSNRWVFGGGTKVEIKRTVAAPSVFIFPPSDEQLKSGTASVVCLLNNFYPREAKVQWKVDNALQSGNSQESVTEQDSKDSTYSLSSTLTLSKADYEKHKVYACEVTHQGLSSPVTKSFNRGEC
notes: human IgG1, kappa; also called Kappa Lc8
B10: 2037-B10-Lc2 (antibody)
heavy: not shown
light: B9 light with L38Y, Q44K, R47K, G48L, L68G, G71T, K72D, A73F
notes: human IgG1, kappa; also called Kappa Lc2
B11: 2037-B10-Lc7 (antibody)
heavy: not shown
light: B9 light with L38Y, Q44K, R47K, G48L
notes: human IgG1, kappa; also called Kappa Lc7
B12: 2037-B10-Lc9 (antibody, V domains shown)
VH: not shown
VL: DTQVTQSPSLSASVGDRVTITCGSSTGAVTSGYYPNWLQQKPGQAPRGLIGGTKFLAPGVPSRFSGSLLGGKAALTISSLQPEDFATYYCALWYSNRWVFGGGTKVEIKR
notes: human IgG1, kappa; also called Kappa Lc9
B13: 2037-B10-Lc10 (antibody, V domains shown)
VH: not shown
VL: B12 VL with T87E
notes: human IgG1, kappa; also called Kappa Lc10
B14: 2037-B10-Lc5 (antibody)
heavy: not shown
light: B9 light with L68G, G71T, K72D, A73F
notes: human IgG1, kappa; also called Kappa Lc5; Parent HC + Kappa Lc5

The binders below were run against T2, human CD3 on T-cell lines (CD3-expressing Jurkat cells; HUT78 cells) (human, UniProt P07766 23-207) (assay: flow cytometry, HUT78 cells).
T2 construct: On cells it stands in the CD3/TCR complex
T2 sequence (P07766 23-207 limits assumed): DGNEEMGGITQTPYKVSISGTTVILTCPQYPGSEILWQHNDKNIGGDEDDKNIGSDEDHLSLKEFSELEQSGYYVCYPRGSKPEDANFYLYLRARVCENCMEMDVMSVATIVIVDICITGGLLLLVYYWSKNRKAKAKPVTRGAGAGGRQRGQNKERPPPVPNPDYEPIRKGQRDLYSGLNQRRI
For B1, the “Bmax (MFI)” value was 1060 MFI and the Kd was 1.72 nM. With B2 the “Bmax (MFI)” value was 544 MFI and the Kd was 0.27 nM. In the case of B3, the “Bmax (MFI)” value is reported as 689 MFI and the Kd is reported as 0.32 nM. For B4, the “Bmax (MFI)” value was 1040 MFI and the Kd was 0.15 nM.

Target: T2, human CD3 on T-cell lines …
Experiment: flow cytometry, HUT78 cells
Remark: another data set of the same source
With B4 the “Bmax (MFI)” value was 1030 MFI and the Kd was 0.4 nM. For B5, the “Bmax (MFI)” value was 1320 MFI and the Kd was 0.8 nM. B6 was tested, and the “Bmax (MFI)” value was 514 MFI and the Kd was 222 nM. In the case of B7, the “Bmax (MFI)” value is reported as 1040 MFI and the Kd is reported as 62.6 nM. In the case of B8, the “Bmax (MFI)” value is reported as 130 MFI and the Kd is reported as 30.4 nM. For B9, the “Bmax (MFI)” value was 1250 MFI and the Kd was 0.3 nM. With B10 the “Bmax (MFI)” value was 63 MFI and the Kd was 24 nM. For B11, the “Bmax (MFI)” value was 737 MFI and the Kd was 338 nM. For B12, the “Bmax (MFI)” value was 1230 MFI and the Kd was 0.4 nM. For B13, the “Bmax (MFI)” value was 1240 MFI and the Kd was 0.6 nM. In the case of B14, the “Bmax (MFI)” value is reported as 1200 MFI and the Kd is reported as 40.7 nM.

Target: T2, human CD3 on T-cell lines …
Experiment: flow cytometry, HUT78 cells
Remark: another data set of the same source
B1 was tested, and the “HUT78 Bmax” value was 1630 and the Kd was 15.6 nM. With B2 the “HUT78 Bmax” value was 1270 and the Kd was 9.36 nM. For B3, the “HUT78 Bmax” value was 804 and the Kd was 18.8 nM. With B4 the “HUT78 Bmax” value was 1890 and the Kd was 2.33 nM. B5 was tested, and the “HUT78 Bmax” value was 1780 and the Kd was 1.6 nM. With B14 the “HUT78 Bmax” value was 1850 and the Kd was 47 nM.

Each binder was assayed against T3, human CD3 epsilon (Acro Cat #CDE-H5223) (human, UniProt P07766 23-126) (assay: SPR (Biacore), antibody captured, human CD3 epsilon analyte).
T3 construct: Bought recombinant protein; also called rhCD3E
T3 sequence (P07766 23-126 limits assumed): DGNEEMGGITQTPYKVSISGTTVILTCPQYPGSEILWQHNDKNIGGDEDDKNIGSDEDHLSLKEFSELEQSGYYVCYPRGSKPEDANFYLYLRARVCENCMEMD
Procedure: (§1) Anti-Fab or anti-Fc polyclonal antibodies were immobilized onto a CM5 chip (GE Life Sciences) using amine coupling chemistry (from Amine Coupling Kit, GE Life Sciences). The immobilization steps were carried out at a flow rate of 25 μl/min in 1×HBS-EP+ buffer (GE Life Sciences; 10× Stock diluted before use). The sensor surfaces were activated for 7 min with a mixture of NHS (0.05 M) and EDC (0.2 M). The Anti-Fab or Anti-Fc antibodies were injected over all 4 flow cells at a concentration of 25 μg/mL in 10 mM sodium acetate, pH 4.5, for 7 min. Ethanolamine (1 M, pH 8.5) was injected for 7 min to block any remaining activated groups.
(§2) Off-rate and kinetic binding experiments were performed at 25° C. using 1×HBS-EP+ buffer. Test and control antibodies were injected over the anti-Fab or anti-Fc surface at concentrations of 5-10 μg/mL for 12 seconds at a flow rate of 10 μL/min on flow cells 2, 3 and 4, followed by a buffer wash for 30 seconds at the same flow rate. […] After capturing ligand (antibody) on the anti-Fc or anti-Fab surface, the analyte (human CD3 epsilon, Acro Cat #CDE-H5223) was bound for 180 seconds, followed by a 600 second dissociation phase at a flow rate of 50 μL/min. Between each ligand capture and analyte binding cycle, regeneration was carried out using two injections of 10 mM Glycine pH 2.0 for 30 seconds at 30 μL/min, followed by a 30 second buffer wash step.
(§3) The data was fit with the Biacore T200 Evaluation software, using a 1-1 Langmuir binding model. KD (affinity, nM) was determined as a ratio of the kinetic rate constants calculated from the fits of the association and dissociation phases.
B1 gave a Kd of 1.47 nM, a koff of 0.000215 s⁻¹ and a kon of 146000 M⁻¹ s⁻¹. Work on B2 yielded a Kd of 1.31 nM, a koff of 0.000372 s⁻¹ and a kon of 284000 M⁻¹ s⁻¹. Binder B3 has a Kd of 1.84 nM, a koff of 0.000591 s⁻¹ and a kon of 321000 M⁻¹ s⁻¹. Binder B4 has a Kd of 0.465 nM, a koff of 0.000222 s⁻¹ and a kon of 478000 M⁻¹ s⁻¹.

Target: T3, human CD3 epsilon (Acro Cat #CDE-H5223)
Experiment: as above
Remark: another data set of the same source
Procedure: as §1, §2, §3
Work on B4 yielded a Kd of 0.596 nM, a koff of 0.000306 s⁻¹ and a kon of 514000 M⁻¹ s⁻¹. B5 gave a Kd of 0.648 nM, a koff of 0.000278 s⁻¹ and a kon of 430000 M⁻¹ s⁻¹. B6: no binding. Binder B7 has a Kd of 7.15 nM, a koff of 0.000393 s⁻¹ and a kon of 55000 M⁻¹ s⁻¹. B8: no binding. B9 gave a Kd of 0.493 nM, a koff of 0.000267 s⁻¹ and a kon of 541000 M⁻¹ s⁻¹. B10: no binding. B11: no binding. B12 showed a Kd of 0.511 nM, a koff of 0.000297 s⁻¹ and a kon of 580000 M⁻¹ s⁻¹. Work on B13 yielded a Kd of 0.464 nM, a koff of 0.000314 s⁻¹ and a kon of 677000 M⁻¹ s⁻¹. B14 gave a Kd of 12.2 nM, a koff of 0.000464 s⁻¹ and a kon of 38200 M⁻¹ s⁻¹.

Target: T3, human CD3 epsilon (Acro Cat #CDE-H5223)
Experiment: as above
Remark: another data set of the same source
Procedure: as §1, §2, §3
Work on B1 yielded a Kd of 5.06 nM, a koff of 0.00041 s⁻¹ and a kon of 81000 M⁻¹ s⁻¹. B2 gave a Kd of 2.45 nM, a koff of 0.000277 s⁻¹ and a kon of 113000 M⁻¹ s⁻¹. B3 gave a Kd of 3.42 nM, a koff of 0.000379 s⁻¹ and a kon of 111000 M⁻¹ s⁻¹. B4 showed a Kd of 2.2 nM, a koff of 0.000564 s⁻¹ and a kon of 256000 M⁻¹ s⁻¹. B5 showed a Kd of 1.96 nM, a koff of 0.000479 s⁻¹ and a kon of 244000 M⁻¹ s⁻¹.

These binders were tested against T1, cynomolgus CD3 epsilon (assay: SPR (Biacore), antibody captured, cynomolgus CD3 epsilon analyte).
Binder B4 has a Kd of 0.416 nM, a koff of 0.000368 s⁻¹ and a kon of 884000 M⁻¹ s⁻¹. For B5, the Kd was 0.413 nM, the koff was 0.000311 s⁻¹ and the kon was 753000 M⁻¹ s⁻¹. B6: no binding. In the case of B7, the Kd is reported as 13.6 nM, the koff is reported as 0.00069 s⁻¹ and the kon is reported as 50600 M⁻¹ s⁻¹. B8: no binding. Binder B9 has a Kd of 0.338 nM, a koff of 0.000311 s⁻¹ and a kon of 920000 M⁻¹ s⁻¹. B10: no binding. B11: no binding. With B12 the Kd was 0.329 nM, the koff was 0.00034 s⁻¹ and the kon was 1.03e+06 M⁻¹ s⁻¹. In the case of B13, the Kd is reported as 0.371 nM, the koff is reported as 0.000404 s⁻¹ and the kon is reported as 1.09e+06 M⁻¹ s⁻¹. In the case of B14, the Kd is reported as 8.28 nM, the koff is reported as 0.000478 s⁻¹ and the kon is reported as 57700 M⁻¹ s⁻¹.

Target: T1, cynomolgus CD3 epsilon
Experiment: as above
Remark: another data set of the same source
B1 showed a Kd of 1.64 nM, a koff of 0.00034 s⁻¹ and a kon of 207000 M⁻¹ s⁻¹. With B2 the Kd was 1 nM, the koff was 0.00058 s⁻¹ and the kon was 579000 M⁻¹ s⁻¹. Binder B3 has a Kd of 1.73 nM, a koff of 0.00123 s⁻¹ and a kon of 709000 M⁻¹ s⁻¹. B4 showed a Kd of 0.418 nM, a koff of 0.000344 s⁻¹ and a kon of 824000 M⁻¹ s⁻¹. Work on B5 yielded a Kd of 0.56 nM, a koff of 0.000375 s⁻¹ and a kon of 670000 M⁻¹ s⁻¹.
